In patent US20060014264, “Cre/lox system with lox sites having an extended spacer region” (Stowers Institute for Medical Research, published 2006):
Where a chain is given by its changes, count along the chain named.

T1: Cre 18::CGRNA+P15L (Enterobacteria phage P1, UniProt P06956 SEQ:1-348)
T1 chain: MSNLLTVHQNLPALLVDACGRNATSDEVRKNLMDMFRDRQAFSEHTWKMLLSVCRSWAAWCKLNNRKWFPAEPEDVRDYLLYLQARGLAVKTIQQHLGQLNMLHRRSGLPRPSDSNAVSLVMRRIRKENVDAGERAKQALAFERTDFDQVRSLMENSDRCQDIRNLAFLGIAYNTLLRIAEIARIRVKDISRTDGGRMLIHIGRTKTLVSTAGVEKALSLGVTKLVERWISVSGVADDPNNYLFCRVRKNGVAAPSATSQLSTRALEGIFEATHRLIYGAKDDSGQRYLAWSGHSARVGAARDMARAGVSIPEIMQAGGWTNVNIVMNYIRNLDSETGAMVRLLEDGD

T2: Cre 286::LRPHW (Enterobacteria phage P1, UniProt P06956 SEQ:1-348)
T2 chain: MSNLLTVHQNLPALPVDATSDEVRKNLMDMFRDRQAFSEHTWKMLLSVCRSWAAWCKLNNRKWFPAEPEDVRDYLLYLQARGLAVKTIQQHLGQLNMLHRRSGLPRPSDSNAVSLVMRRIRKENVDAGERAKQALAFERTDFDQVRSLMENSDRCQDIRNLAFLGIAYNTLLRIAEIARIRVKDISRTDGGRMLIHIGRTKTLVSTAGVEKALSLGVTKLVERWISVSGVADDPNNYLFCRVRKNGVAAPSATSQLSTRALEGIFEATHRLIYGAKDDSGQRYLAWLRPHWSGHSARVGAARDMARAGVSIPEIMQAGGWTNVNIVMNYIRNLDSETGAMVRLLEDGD

T3: Cre 24::CGRIR (Enterobacteria phage P1, UniProt P06956 SEQ:1-348)
T3 chain: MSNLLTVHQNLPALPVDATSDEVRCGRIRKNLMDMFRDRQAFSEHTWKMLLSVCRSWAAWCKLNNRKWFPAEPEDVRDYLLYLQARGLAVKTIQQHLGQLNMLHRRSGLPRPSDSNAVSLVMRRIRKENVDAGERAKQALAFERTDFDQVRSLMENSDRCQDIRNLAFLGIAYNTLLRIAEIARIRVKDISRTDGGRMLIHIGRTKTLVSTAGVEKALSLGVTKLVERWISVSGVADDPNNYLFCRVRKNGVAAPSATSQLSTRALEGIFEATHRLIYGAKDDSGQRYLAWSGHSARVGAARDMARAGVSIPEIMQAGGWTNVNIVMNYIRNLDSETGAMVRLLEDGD

T4: Cre 24::CGRIR (in E. coli) (Enterobacteria phage P1, UniProt P06956 SEQ:1-348)
T4 chain: T3 chain

T5: Cre 18::CGRNA+P15L (in E. coli) (Enterobacteria phage P1, UniProt P06956 SEQ:1-348)
T5 chain: T1 chain

T6: Cre 286::LRPHW (in E. coli) (Enterobacteria phage P1, UniProt P06956 SEQ:1-348)
T6 chain: T2 chain

T7: Cre 280::CGRTG (in E. coli) (Enterobacteria phage P1, UniProt P06956 SEQ:1-348)
T7 chain: T2 chain with Q281C, R282G, Y283R, L284T, A285G, W286Q, L287R, R288Y, P289L, H290A

B1: lox+3 cleavage oligonucleotide KC341 duplex (dsDNA)
DNA 1: TCGAGTGCACAACTTCGTATAATGATTTATGCTATACGAAGTTATCATTCGCTAG
DNA 2: CTAGCGAATGATAACTTCGTATAGCATAAATCATTATACGAAGTTGTGCACTCGA
B2: lox+3 site (in plasmid or PCR fragment) (dsDNA)
DNA 1: ACAACTTCGTATAATGATTTATGCTATACGAAGTTAT
DNA 2: ATAACTTCGTATAGCATAAATCATTATACGAAGTTGT

Experiments:
Cre 18::CGRNA+P15L = biological target: T1, Cre 18::CGRNA+P15L; assay: cleavage_in_vitro; covalent complex, top strand; 30 nM Cre; conditions: chain copies: 2 per lox site (stated); label: 5'-32P
Description: (§1) DNA cleavage reactions were in a 12 μl reaction volume containing Cre reaction buffer, 83 ng/μl BSA, 8.3 ng/μl calf thymus DNA, […] appropriate ³²P-labeled DNA substrate and 30 nM of Cre. Reactions were incubated at 37° C. for 1 hour, terminated by addition of 12 μl of 2×SDS-gels loading buffer (x: 40 mM Tris-HCl pH 6.8, 50 mM DTT, 1.0% SDS, 7.5% Glycerol, 0.01% Bromphenol Blue), heated at 95° C. for 5 minutes and then analyzed by 15% SDS-PAGE. Gels were quantified using a PhosphorImager (Molecular Dynamics, Sunnyvale, Calif.) scanner.
(§2) The ability of each mutant to catalyze cleavage at the lox⁺³ site on an unnicked 54 bp substrate was examined. Cleavage by Cre is easily detected as a slowly moving band on a polyacrylamide gel resulting from the formation of a protein-DNA complex in which the catalytic tyrosine of Cre is covalently linked to a 3′ phosphate of the labeled DNA substrate at the site of cleavage (FIG. 3).

Cre 286::LRPHW = biological target: T2, Cre 286::LRPHW; assay: as above; conditions: chain copies: 2 per lox site (stated); label: 5'-32P
Description: as §1, §2

Cre 24::CGRIR = biological target: T3, Cre 24::CGRIR; assay: as above; conditions: chain copies: 2 per lox site (stated); label: 5'-32P
Description: as §1, §2

Cre wt = Cre wt (Enterobacteria phage P1, UniProt P06956 SEQ:1-343); assay: cleavage_in_vitro; reference for mutants; cleavage strongly reduced on intact lox+3; 30 nM Cre, 10 mM MgCl2, 37 C; conditions: chain copies: 2 per lox site (stated); label: 5'-32P
Description: as §1, §2

[1] = biological target: T4, Cre 24::CGRIR (in E. coli); assay: cell_activity; background 0.001%; conditions: chain copies: 2
[2] = biological target: T5, Cre 18::CGRNA+P15L (in E. coli); assay: cell_activity; background 0.001%; conditions: chain copies: 2
[3] = biological target: T6, Cre 286::LRPHW (in E. coli); assay: cell_activity; background 0.001%; conditions: chain copies: 2
[4] = biological target: T7, Cre 280::CGRTG (in E. coli); assay: cell_activity; background 0.001%; conditions: chain copies: 2
Cre wt (in E. coli) = Cre wt (in E. coli) (Enterobacteria phage P1, UniProt P06956 SEQ:1-343); assay: cell_activity; background 0.001%; conditions: chain copies: 2

| Binder | cleavage (covalent Cre-DNA complex) (Cre 18::CGRNA+P15L) | cleavage (covalent Cre-DNA complex) (Cre 286::LRPHW) | cleavage (covalent Cre-DNA complex) (Cre 24::CGRIR) | covalent cleavage complex formation (Cre wt) | activity [1] | activity [2] | activity [3] | activity [4] | activity (Cre wt (in E. coli)) |
| --- | --- | --- | --- | --- | --- | --- | --- | --- | --- |
| B1 | 20 fold vs wt Cre | 4 fold vs wt Cre | 4 fold vs wt Cre | 1 fold vs wt Cre | – | – | – | – | – |
| B2 | – | – | – | – | 94 % recombination (KnR) | 56 % recombination (KnR) | 92 % recombination (KnR) | 61 % recombination (KnR) | 0.1 % recombination (KnR) |
